Assay results taken from patent US20060088890A1.

Experiments:
[1] = molecular target: angiotensin converting enzyme (ACE) (human) (UniProt P12821); experiment: indirect immunofluorescence flow cytometry, KG-1 cells, BB9 at 20 µg/mL; grade = proportion of positive cells
[2] = molecular target: angiotensin converting enzyme (ACE) (human) (UniProt P12821); experiment: indirect immunofluorescence flow cytometry, dermal fibroblasts, BB9 at 20 µg/mL; grade = proportion of positive cells
[3] = molecular target: angiotensin converting enzyme (ACE) (human) (UniProt P12821); experiment: indirect immunofluorescence flow cytometry, Nalm-6 cells, BB9 at 20 µg/mL; grade = proportion of positive cells
[4] = molecular target: angiotensin converting enzyme (ACE) (human) (UniProt P12821); experiment: indirect immunofluorescence flow cytometry, K562 cells, BB9 at 20 µg/mL; grade = proportion of positive cells
[5] = molecular target: angiotensin converting enzyme (ACE) (human) (UniProt P12821); experiment: indirect immunofluorescence flow cytometry, Hi MEG cells, BB9 at 20 µg/mL; grade = proportion of positive cells
[6] = molecular target: angiotensin converting enzyme (ACE) (human) (UniProt P12821); experiment: indirect immunofluorescence flow cytometry, HL60 cells, BB9 at 20 µg/mL; grade = proportion of positive cells
[7] = molecular target: angiotensin converting enzyme (ACE) (human) (UniProt P12821); experiment: indirect immunofluorescence flow cytometry, MG63 cells, BB9 at 20 µg/mL; grade = proportion of positive cells
[8] = molecular target: angiotensin converting enzyme (ACE) (human) (UniProt P12821); experiment: indirect immunofluorescence flow cytometry, MEG-01 cells, BB9 at 20 µg/mL; grade = proportion of positive cells
[9] = molecular target: angiotensin converting enzyme (ACE) (human) (UniProt P12821); experiment: indirect immunofluorescence flow cytometry, U937 cells, BB9 at 20 µg/mL; grade = proportion of positive cells
[10] = molecular target: angiotensin converting enzyme (ACE) (human) (UniProt P12821); experiment: indirect immunofluorescence flow cytometry, HEL-DR cells, BB9 at 20 µg/mL; grade = proportion of positive cells
[11] = molecular target: angiotensin converting enzyme (ACE) (human) (UniProt P12821); experiment: indirect immunofluorescence flow cytometry, MCF-7 cells, BB9 at 20 µg/mL; grade = proportion of positive cells
[12] = molecular target: angiotensin converting enzyme (ACE) (human) (UniProt P12821); experiment: indirect immunofluorescence flow cytometry, RC2A cells, BB9 at 20 µg/mL; grade = proportion of positive cells
[13] = molecular target: angiotensin converting enzyme (ACE) (human) (UniProt P12821); experiment: indirect immunofluorescence flow cytometry, UT7 cells, BB9 at 20 µg/mL; grade = proportion of positive cells

Chain of UniProt P12821 (P12821 30-1306): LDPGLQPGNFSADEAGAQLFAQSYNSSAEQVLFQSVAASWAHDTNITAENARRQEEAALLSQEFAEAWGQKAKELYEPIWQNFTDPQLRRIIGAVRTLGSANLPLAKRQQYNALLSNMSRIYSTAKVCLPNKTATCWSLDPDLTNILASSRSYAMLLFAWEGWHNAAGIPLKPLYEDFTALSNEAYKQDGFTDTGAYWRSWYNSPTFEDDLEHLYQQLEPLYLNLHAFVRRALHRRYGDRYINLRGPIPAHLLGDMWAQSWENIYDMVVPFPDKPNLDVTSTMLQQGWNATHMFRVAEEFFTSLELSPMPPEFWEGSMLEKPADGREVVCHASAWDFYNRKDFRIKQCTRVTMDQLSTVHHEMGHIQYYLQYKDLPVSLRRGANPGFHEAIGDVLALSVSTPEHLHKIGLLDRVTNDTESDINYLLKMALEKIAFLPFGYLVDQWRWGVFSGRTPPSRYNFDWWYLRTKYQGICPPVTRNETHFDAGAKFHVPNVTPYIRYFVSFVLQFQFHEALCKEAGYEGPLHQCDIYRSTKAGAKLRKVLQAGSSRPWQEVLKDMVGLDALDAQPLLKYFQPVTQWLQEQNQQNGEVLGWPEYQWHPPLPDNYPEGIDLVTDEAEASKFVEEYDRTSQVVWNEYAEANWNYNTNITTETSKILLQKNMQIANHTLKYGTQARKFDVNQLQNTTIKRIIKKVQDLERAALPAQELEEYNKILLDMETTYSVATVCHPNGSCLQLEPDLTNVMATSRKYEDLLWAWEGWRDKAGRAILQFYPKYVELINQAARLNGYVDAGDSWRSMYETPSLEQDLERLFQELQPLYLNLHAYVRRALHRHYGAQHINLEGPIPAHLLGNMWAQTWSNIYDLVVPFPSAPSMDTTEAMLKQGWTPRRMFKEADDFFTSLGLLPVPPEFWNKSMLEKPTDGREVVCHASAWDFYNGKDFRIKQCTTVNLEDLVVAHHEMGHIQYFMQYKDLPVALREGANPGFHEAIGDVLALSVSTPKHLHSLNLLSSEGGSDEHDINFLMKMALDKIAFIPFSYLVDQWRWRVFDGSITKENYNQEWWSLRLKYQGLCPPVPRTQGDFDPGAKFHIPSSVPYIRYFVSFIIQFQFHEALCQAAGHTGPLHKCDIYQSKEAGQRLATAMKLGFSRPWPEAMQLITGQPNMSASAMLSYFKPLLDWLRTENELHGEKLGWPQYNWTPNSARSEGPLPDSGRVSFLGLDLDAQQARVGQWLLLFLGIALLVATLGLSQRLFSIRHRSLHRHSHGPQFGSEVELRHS

**Q.** What does the source list for monoclonal antibody BB9?
**A.** proportion of BB9 positive cells [1]: 5 to 35%; proportion of BB9 positive cells [2]: 80 to 100%; proportion of BB9 positive cells [3]: 5 to 35%; proportion of BB9 positive cells [4]: 35 to 80%; proportion of BB9 positive cells [5]: 5 to 35%; proportion of BB9 positive cells [6]: 35 to 80%; proportion of BB9 positive cells [7]: 35 to 80%; proportion of BB9 positive cells [8]: 35 to 80%; proportion of BB9 positive cells [9]: 5 to 35%; proportion of BB9 positive cells [10]: 35 to 80%; proportion of BB9 positive cells [11]: 5 to 35%; proportion of BB9 positive cells [12]: 5 to 35%; proportion of BB9 positive cells [13]: 35 to 80%
